Source: the DeepSol protein solubility set

Assay: soluble on expression in E. coli; label from the status in PepcDB or PDB records

Row | Sequence | soluble on expression in E. coli
1 | MAHHHHHHMQTNVLERIRALEADIERCIDSIVQQDLFAASIENERHRILLDHFTLQQVGIVRSTAEKLLDVYLDEDDIVQVQNAPAESPDNIAAAVKEFEAKIADIREYHHIYRDLPPVKDELAVPSPRLLDDIFTVHERYGACFDMDAHYNRYSAFMVHTKTLAEGCVSASAEVKKELAPLSPSSVLKWSSMWPGRLDFFSFTKALPQLLLHEVEAHRKIVGFALYKPFVAELLAYLEGFYRRIHPLKPAALERLMAEVESDAEKYWASLVEVKAEVTSVAATTAAASTEDEQADVQDVEDERVEEREAGGAAGSSSKGQTAAPVRIAVGNKVACGLAIPPSLRQHVKKFSLWPLPLIEKLIEDVGQASGTSDGAVASTSKLPTSVADVKMVCLMEAKAAALLQSFLYTTLETTNTSLLRDYSRTLEELENDREVAEQEFLDSLEEVRKNSADTMEGTVAHAAEYNLKLALEDSKGSRRGRHGKASAPAPVAAAPAAPELPLEEEEEQLIGENGEPIPRWLAQLHQLDKMFRCDVCGGTIYKGPKVFREHFGAERHAEGLRRLGVMHHLKSYEGITSIRQVVEMREQLTGGESGFRKRLRDNTDNEEIQDARGHVVTAKEYLRLQQRRR | not soluble
2 | MDLEFGRFPIFSILEDMLEAPEEQTEKTRNNPSRAYMRDAKAMAATPADVIEHPDAYVFAVDMPGIKGDEIQVQIENENVLVVSGKRQRDNKENEGVKFVRMERRMGKFMRKFQLPDNADLEKISAACNDGVLKVTIPKLPPPEPKKPKTIQVQVA | soluble
3 | MGSDKIHHHHHHMKFLFIVQGEGRGHLTQAITLEEMLLRNGHEVVEVLVGESSSRILPGFFNRNIQAPVKRFISPNFLPAADNKRANLKKSFTYNLLRIPEYFRSMCYINQRIKETGAEVVINFYELLTGLTYALFRPSVPYVCVGHQYLFLHQNFEFPDKNSFELRMLRFFTKMTAVRSSKKLALSFNDMEPDRGQQVVVVPPLIRQEVTAIQPEEGNYIHGYMVNSGFADSVEEFHTIYPEVPLRFFWDKADAEEVTRIDETLSFYQIDDVKFLNGMAGCRAYATTAGFESICEAMYLGKPVLMVPAHIEQDCNAHDAMRAGAGIISDSFDLKPLLRFAGTYSPNRTFVRWVRSGERRIILELEKLAASQSAITSIPTFTNYLPI | not soluble
4 | MNLMDLANEHDALILAHNYQTPEIQDVAHHVGDSLALAKIAAESQASTIVLCGVYFMAETTKILSPEKRVIIPEPEAGCSLASSITAEQLRAWKAEHPEAAVVAYVNTTAEVKALSDVCCTSSNAVRVVESIDPDRDILFLPDQFLGAHVQRETGRKNIHVWLGECHVHADISPTHITEMAHNNPQADLYVHPECGCTTSALWLASQGDIPQARILSTGGMMEAARKTAASTVLVATEIGMLHQLRKANTATDFIPVNPYAACPFMQMITMEKLEKALVEGHHEVHVDPVLAQRARGAVEAMITL | not soluble
5 | MGSDKIHHHHHHMKEQKLSNRFCPEGMTVEEWQVGLRREFAEQNPFDVEHLDENRIWGDYLVANGRNRYRVAFRGVRSERNYCSCLDFRTNGLGTCKHIEAVTLFLQDQVPGYPWGEFDYTPEYSSIYVSYKGGRSIKMRVGREETARFEALRARFFDESGTLPPENYSFLPQICDEAKDIAASFRCYEDVFDLTQEHCRRMEWQDYLRETNPDKRVDNEYTADMPEEMRRHVYDLAYEGHGVMVGLPSDVIVREVVALADVYLRDQPGATGYVIINDPQRFILWRNAFANPALRRLPIEVMHASAFVKKVANNVPPCTFMFVEQAARLKEWRDPVSVAIKRMQIDHLYMNLETIEDLTPVQFSSVVQHIDPFILGPFYRFIRDYRPIFPLRNDGSNLPDDVRDFMFLYTSDSIREMNEMLPPIRTAEILLHGTDAEEEIDKLLRHLNRVLSNDTLREVFLKRISMIVGAS | not soluble
6 | MDYKSKTANDKEISIYYFSATGNSLKLSQDIAAAFGGAGLFRMTPSAGITASDSRIVGFIFPVYMGGLPGIVRRFLESYPFRKGVYYFSIGTYYTYKGCAVSVVDKIMSGKGVRLDYGYNLPTVGNCLKEYEVSSVRRTKILERAELYTSRIIDDLKKGKRKKPFPYCRLSDLLHKGLFNAFFSRSHLNFSLENGCMGCGVCERVCPVNNITLKNGVPRWGTGCEACHACVHWCPRNVIQIGKSKGRLQYHHPAVKRTMLYRVELEHHHHHH | not soluble
7 | MSYDTDPFRGEFDSLEEFADRVSDVLKCPVTIEDANHRLIAYSAHDDYTDPARTATIISRRVPEKVINSLWKQGAIPALLKSREPVRVPPIHDVGLGSRVAVSIWKNDEVIGFIWVLETNRTLSPEEMEWLKLAAKAAKNKVLQLYMRKNKKEERVQELFWKLLTGHIAREDDIRAHLAAMQIPTAPQFAVVVFRFAADLTAEMERQISYLLQTTQQLPLLLYTTDGRDVILLAAPKTDQPLKELNAFIESFAAKMKERFHIHDVQCGFGGVYGIYRLIEKSYREALAVLALKEKLGDEIKSVYGYAQLGIYQFFDLLLEQKRQGEWTNPALTKLQSYDQKHHSDLVKTFETFFDHNENAQETADVLNVHPNTLAYRLKRIADIAELDLNDMNQKIKLYIDIKLAKYEARG | not soluble
8 | MKCKDDMSAVLTAEQALKLVGEMFVYHMPFNRALGMELERYEKEFAQLAFKNQPMMVGNWAQSILHGGVIASALDVAAGLVCVGSTLTRHETISEDELRQRLSRMGTIDLRVDYLRPGRGERFTATSSLLRAGNKVAVARVELHNEEQLYIASATATYMVGLEHHHHHH | soluble
9 | MHVMIFGAGYSGKAIANALKTKAASVCGTTRSADKFANLAAAGMTPLLFDGVHLDDDLIAAMRNVTHLVQSIAPGKDGDPLFALLGGDLKKLLPNLKWLAYLSTVGVYGDHHGAWVNETTPCRPVSARSVERVAAEAAWTEAAQSADVPLSILRLSGIYGPGRNTFMNFEKGTARRLVKKDQVFNRIRVEDIGAAIAFLALKNERGIFNVTDDEPCPPQDVVSFAADLMGVVPPAEQDFGTADLTPMARSFYGENKRVSNAKIRELGFDFRFPEYRQSLKQLWESSLWRG | not soluble
10 | MKKWLLAAGLGLALATSAQAADKIAIVNMGSLFQQVAQKTGVSNTLENEFKGRASELQRMETDLQAKMKKLQSMKAGSDRTKLEKDVMAQRQTFAQKAQAFEQDRARRSNEERGKLVTRIQTAVKSVANSQDIDLVVDANAVAYNSSDVKDITADVLKQVK | soluble
11 | MYRGEPGTRAHQQEEHVVDSSPLEPSSSLEDTRVWGHVGVAAAPRLLAQALPKLRCKLPKPQAPLAGHEAQQPRGGLILPLALASELMESSTVQWLSYKQPQVVPVVPQLPRVLWQVQPLEKPGSQSFRNNQPSILLKTRLRFSITRISLFNYHR | soluble
12 | MSINTANTPDGLGVLLYNGETIVIFAQGVVMTLGTSENENLEGRRTGTIYLTSHRIIFMPDPGDWLKSFEIPFNSMQDVNLNQPIFGANYLCGIASAVQGGQMRGEVKWRMTFNRGGCIEFGQSLLQAVERAVRMRPENAPPAYSPPIGDFYSAPPAYYQPSPDQGPNGFNPTTDSFPDQPNPSRVFMSSAPPPYPGIGPERGPHPTEELHVAGQFEAPPAYGSGETADGLRRRN | not soluble
13 | MSLNINKVFYHSSTNMNEVPDNSVDLIITSPPYFNIKDYAKNGTQDLQHSAQHVEDLGALEKYEDYLLGLLKVWLECYRALKPNGKLCINVPLMPMLKKVLNTHYNRHIFDLHADIQHSILHDLNNMLKNKPKMFLLDVYIWKRANPTKRLMFGSYPYPRNFYAQNTIEFIGVFVKDGKPKQPTEEQKEQSQLTQEEWVEFTKQIWEIPIPNKNDIAFGKHAALMPAELARRLIRLYSCVGDVVLDPFSGSGTTLREAKLLKRNFIGYELYENYKPLIEQKLGNLFDFEEGHHHHHH | soluble
14 | MACTGYEELRKWFLDKMVNACRAIRDQKEDQSNSAAKKAMLYIQENYNKDISLDDVSGIVNISPYYFSKIFKEETGENFIEYVTKVRIEKAKEFLAQPDISIKEAGIRSGYTDPNYFSRIFKKQTDMTPSEYKTRYGK | not soluble
15 | MDALVSTKANSIAYQRSTVIIPAYNEEKRLMPVLYELCEYIRSNSLEWKVMVSIDGDDGTESNVKIMMQEYSFLSYSKGKGRGGKGAAIKRAITSATGEFVILMDADGSVPLKEIVKALDLTNYYDLIIFDRYSNRGNRIPFIRRFPSRGFNKLVRIFLGLKINDTQCGYKIIKREYAQRAFNKITISNAFFDVALLYYLKKERAKYIEIPVEYNYDRNSKFHVVELVLGEGISLIAFRIRNSRFYKYVPEKLISLYYRKFRWILEHHHHHH | soluble
16 | MGSDKIHHHHHHMVNHTQFRQWGRKVIDIEKAALDNLYQYVDSVEFDQACQLIMQCKGKVIVMGMGKSGHIGNKISATFASTGTPAFFVHPGEASHGDLGALAKNDIVLAISNSGESSEILTLMPVIQRMGVPVIAVTGKPDSNMARLSKIHLCIQVQEEACPLGLAPTSSTTATLAMGDALAIALLQAKGFTRDDFALSHPGGSLGRKLLLKVDDVMHQGDDLPIVNDDICITDALYEISKKGLGMTAVVDHASKLVGIFTDGDLRRVIDADVNLRTTSIAHVMTKNCVTSPAGILAAQALQIMDEKSINGLIVVNEKHQPIGALNMLDMVKAGVI | not soluble
17 | MAHHHHHHMYQGRSQQPLWTPPPNFSQVETGIYRSAYPTLASVPFLHHIGIKTIVLLSIELLPVPVVRAISEGDVVAGTTSVSDDVHAWKDNECIKWPIRIVSTADLSEWMNEYVCAKDDFAVSSVQRALDFALQPDFQPVLFTCPTGELQTSVIVGCMRRHQGWSLAAVLAECELFVNVTGGVRQSVMNFIEQWDPDEHPVREEDIAKRKRELLLRDPSLSYSVKRHRRTVTHSASDPDSEYDDPLAMGTSRLGQKGTAGNSAGMGLSLSPYKSSGFDRSTLSSTRVGGDELGLSHSSHVVIKLASWYTAAMKRRAAAAEAIVAARAKVRAPSDPLPEPHERYFGVLNPPALDERSTFTKKSIVQDLD | not soluble
18 | MMEENKRVLLGMSGGTDSSVAAMRLLEAGYEVTGVTFRFYELNDSTEYLEDARHLAERLGIRHITYDAREIFRKQIIEYFVHEYMVGHTPVPCTLCNNYLKWPLLSKIADEMGIFYIATGHYVRKVKVDDTCYITYAADSDKDQTFFLWGLKQDILRRMLLPMGDITKVEARAFAAERGFQKVAVKRDSLGVCFCPMDYRSFLKMWLVSNCQPQVSVGQPQVSAGQTWSAEVRRGRFVDEKGDFIAWHEGYPFYTVGQRRGLGIHLNRAVFVKEIRPEKNEVVLASLQALEKTEMLLKDWNIVNRERLLGHADIIVKIRYRKQENHCTVTVTLDNFLHVQLHEPLTAIASGQAAAFYKDGLLLGGGIIVE | not soluble
19 | MDRFDAMRAFARVVETGSFTKAADTLHMSKTSVTQLVQQLEARLRVRLLNRTTRKVNATADGAAYYERVRQLLADLEDAETSLSGASATPGGRLRVDVPSPFASTILVPALPAFQARYPDILLHLGVSDREVDLIDENVDCVIRGGQIGNLSLAARHVGDLQLGVYASPGYLARAGVPAHPRELQDAQHRIIGFSWSRARRLFPCAMRRRADERIEVAGRHALLLDEGNAYLAAGLAAMGVIGVPTYMAEAHVERGALIRLFGDWRLDPMPLYIAYPQNRHVSAKLRVFIDWIVELMARHAPVTDAPPPHRSARMPGGPAAIPTDITGA | not soluble
20 | MCIVALAWQVFDQIPLCLLSNRDEFYARPTTQLHLWENTPIIAGRDLQSGGTWMGITASGRWAVVTNFRDGHDKKIYDTSRGTLVEDFLLSDLAPIRFAKQLEQRQQHYAGFNLFMGDQSQAVYMSNRGEAPQVLAKGVYVVSNGLMSEHWEKTAHLRKRFTQEFVPMLQAEIAEHDLEYTAWDILEDERKVIPELLPSTGIHPDMEELLSSTFIQSPVYGTRCSNFLRLMKRRWIWAEKTQWGDHAGEMMRMDIQIQLEHHHHHH | not soluble
